Measurements from patent US20080095767A1 (PEPTECH, published 2008).
Blank lines part the entries; values can stand above or below the binder they belong to.

Columns and labels:
[1] = target: T1, rat MOG (myelin-oligodendrocyte glycoprotein) (rat, UniProt Q63345 28-245); assay: Western blot on rat spinal cord lysate
T1 construct: mature; Endogenous protein in cleared rat spinal cord lysate, run on SDS-PAGE and blotted; It was identified only by its size
T1 sequence (looked up): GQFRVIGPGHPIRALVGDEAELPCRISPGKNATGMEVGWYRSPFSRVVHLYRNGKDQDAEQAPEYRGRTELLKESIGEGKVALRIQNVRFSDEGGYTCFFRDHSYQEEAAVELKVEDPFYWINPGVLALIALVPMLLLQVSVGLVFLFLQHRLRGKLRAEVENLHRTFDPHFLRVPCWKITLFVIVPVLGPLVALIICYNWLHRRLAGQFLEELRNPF
Procedure: The ability of AB138 to retain binding to the antigen of M26, rat MOG (myelin-oligodendrocyte glycoprotein), was investigated by Western Blot. 130 mg of rat spinal cord (IMVS, Australia) was homogenized in 1.8 ml CelLytic M Cell Lysis Reagent (SIGMA, C2978) and incubated for 30 minutes at 4° C. Further homogenization was performed by drawing the lysate through a 27 g ½ needle several times followed by centrifugation at 4° C. and 13000 g for 30 minutes. The pellet and supernatant was diluted into SDS-PAGE sample buffer (125 mM Tris-HCl pH 6.8, 5% SDS, 0.25% bromophenol blue, 25% glycerol). Along with this 200 μl CHOK1SV cells at 1×10⁶ viable cells per ml were spun down at 13000×g at 4° C. for 1 minute and resuspended in 200 μl CelLytic M Cell Lysis Reagent (SIGMA). Following centrifugation at 4° C. and 13000×g for 30 minutes the supernatant was mixed with the appropriate amount of SDS-PAGE sample buffer. All samples, along with a sample of molecular weight markers, were run on a 4-20% Novex pre-cast gel (Invitrogen, Australia) for 2 hours at 120V. Proteins were then transferred to PVDF (BioRad, Australia) using a western blot apparatus in 1×Tris-Glycine Buffer with 20% methanol (BioRad, Cat 161+-0771) at 4° C. at 250 mA for 2 hours. […] Following washing, bound antibody was detected using the ECL Western Blotting Analysis System, (Amersham Biosciences Cat: RPN2109). […]

[2] = target: T2, human TNF-α (Peprotech Cat No: 300-01A) (human, UniProt P01375 77-233); assay: cell-based or functional assay
[3] = target: T2, human TNF-α (Peprotech Cat No: 300-01A); assay: ELISA, TNF-α coated on the plate
Procedure: TNF-α (Peprotech Cat No: 300-01A) was diluted to 1 μg/mL in carbonate coating buffer ([…] pH 9.6). 100 μl of this solution was added to each well of a 96 well plate and incubated at 4° C. overnight in a humidified container. The plate was then washed three times with wash buffer (0.01M PBS pH 7.2, 0.05% Tween-20) and then three times with 0.01M PBS pH 7.2. The wells were then blocked by adding 200 μL blocking buffer (1% w/v BSA in 0.01M PBS pH 7.2) to each well and incubating the plate at 25° C., in a humidified container, for 1 hour. The antibody was diluted in antibody diluent (1% w/v BSA, 0.05% Tween-20 in 0.01M PBS pH 7.2) sufficient to generate a titration curve covering the ranges 6.00 μg/mL to 0.0578 ng/mL. The wells were incubated with the antibody for 1 hour at 25° C. The plate was then washed as previously described. 100 μL of Anti-IgG H+L antibody HRP conjugate (Zymed, Cat No: 81-71200) at 1:2000 in antibody diluent was used to detect bound AB197 and AB103. 100 μL of Anti-murine immunoglobulin antibody HRP conjugate (Dako, Cat No: P0260) at 1:2000 in antibody diluent was used to detect bound AB164. Wells with antibody diluent only were used to measure the background absorbance. After incubation at 25° C., in a humidified container, for 1 hour the plate was washed again as previously described. 100 μL TMB substrate solution (Zymed, Cat No: 00-2023) was added to each well and the colour allowed to develop for 4 min. 100 μL of 1M HCl was added to terminate the colour development reaction and absorbance was determined at 450 nm (ref. 620 nm)

T2 sequence (P01375 77-233 limits assumed): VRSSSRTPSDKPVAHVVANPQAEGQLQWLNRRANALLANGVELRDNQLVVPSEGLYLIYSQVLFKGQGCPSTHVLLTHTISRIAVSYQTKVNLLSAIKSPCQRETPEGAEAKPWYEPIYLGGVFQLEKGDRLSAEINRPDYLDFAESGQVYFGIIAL

binding result [1]: binds
B1: AB138 (MOG specific marmoset derived variable region-human constant region chimera) (antibody, human IgG1, kappa, V domains shown)
VH: QVQLVQSGAEVKKPGASVKVSCKASGYTFTSYAISWARQPPGQGLEWMGAFDPEYGSTTYAQKFQGRVTMTADTSTSTAYMELSSLRPEDTAVYYCARDVNFGNYFDYWGQGTLVTVSS
VL: ELVMTQSPATLSLSPGERATVSCRAGQSVSYYLAWYQQKPGQAPRLLIYGASTRATGIPARFSGSRSGTDFTLTISSLEPEDFAVYYCQQYSSWPPTFGQGTKLEIKR
notes: Chimeric antibody with the variable regions of the marmoset anti-MOG antibody (M26) and human IgG1/kappa constant regions

EC50 [3]: 0.45 µg/mL
B2: murine monoclonal antibody AB164 (antibody, V domains shown)
VH: QVQLQQSGAELVRPGTSVKVSCKASGYAFTNYLIEWVKQRPGQGLEWIGVINPGSGSTNYNEKFKDKATLTADKSSSTAYMQLSSLTSDDSAVYFCVRDYGYDGMDYWGQGTSVTVS
VL: DIVLTQSPASLAVSLGQRATISCRASKSVSTSGYSYMHWYQQKPGQPPKLLIYLASNLESGVPARFSGSGSGTDFTLNIHPVEEEDAATYYCQHSRELPLTFGAGTKLELKR
notes: Fully murine antibody from a hybridoma
EC-50 (µg/ml), neutralisation of TNF-α-induced L-929 cell cytotoxicity [2]: 0.1 µg/mL

EC50 [3]: 0.19 µg/mL
B3: AB103 (anti-TNFα murine variable region-human constant region chimera) (antibody, V domains shown)
VH: QVQLQQSGAELVRPGTSVKVSCKASGYAFTNYLIEWVKQRPGQGLEWIGVINPGSGSTNYNEKFKDKATLTADKSSSTAYMQLSSLTSDDSAVYFCVRDYGYDGMDYWGQGTSVTVSS
VL: B2 VL
EC-50 (µg/ml), neutralisation of TNF-α-induced L-929 cell cytotoxicity [2]: 0.1 µg/mL

EC50 [3]: 0.68 µg/mL
B4: engineered monoclonal antibody AB197 (antibody, V domains shown)
VH: QVQLVQSGAELKKPGASVKVSCKASGYAFTNYLIEWVRQPPGQGLEWIGVINPGSGSTNYNEKFKDKATLTADKSSSTAYMELSSLRPEDTAVYYCARDYGYDGMDYWGQGTLVTVS
VL: ELVMTQSPATLSLSPGERATVSCRASKSVSTSGYSYMHWYQQKPGQAPRLLIYLASNLESGVPARFSGSRSGTDFTLTISSLEPEDFAVYYCQHSRELPLTFGQGTKLEIKR
EC-50 (µg/ml), neutralisation of TNF-α-induced L-929 cell cytotoxicity [2]: 0.41 µg/mL
